Data on two molecules can be found in doi:10.1101/2024.11.27.625426 (bioRxiv, 2024).

Positions count from the first letter of the chain named.

Assay [1] concerns the target sNAp of A/New Caledonia/20/1999 (NC99, H1N1) NA (Influenza A virus A/New …, UniProt Q7TG96, stabilised). Kind of assay: ELISA. As to conditions: both partners purified. In general terms: In an ELISA, binding on a coated surface is turned into a signal by an enzyme label.
For assay [2], the target named is T1, NA of influenza B-Victoria lineage virus B/Colorado/06/2017 (B/Vic CO17) (Influenza B virus B/Colorado/06/2017 …, UniProt A0A1X9RX69).
T1 construct: not shown: His6, N-terminal, kept
Kind of assay: ELISA. As to conditions: both partners purified.

B1: NCS.1.1 mAb (IgG) (antibody, V domains shown)
VH: QVQLQESGPRLVKPSETLSLTCSVSGESISSGGYYWTWIRQHPGKGLEWIGNIFDTGSTDYSPSLKTRLTISIDTSKNQFYLRLNSATAADTAVYYCARVGFSLETDRPYYLGLDVWGQGTTVTVSS
VL: DIVMTQSPLSLPVTPGEPASISCRSSQSLLHSNGYTYLDWYLQKPGQSPQLLISFTSNRASGVPDRFSGSGSGTYFTLKISRVEAEDVGVYYCMQAVQTPWTFGQGTKVEIK
notes: copies: 2 + 2
For B1, the binding result in assay [1] and in assay [2] was “binds” each time.

B2: NCS.1.3 mAb (IgG) (antibody, V domains shown)
VH: B1 VH with N85T
VL: B1 VL with S10T, S54Y, T56A, T99S
notes: copies: 2 + 2
On to B2, for which the binding result in assay [1] and in assay [2] was “binds” in each case.
